B1: ipilimumab (Yervoy, Bristol-Myers Squibb) (antibody, V domains shown)
VH: QVQLVESGGGVVQPGRSLRLSCAASGFTFSSYTMHWVRQAPGKGLEWVTFISYDGNNKYYADSVKGRFTISRDNSKNTLYLQMNSLRAEDTAIYYCARTGWLGPFDYWGQGTLVTVSS
VL: not shown
B2: Z15170-HCLam (bispecific antibody)
heavy: not shown
light: EIVLTQSPATLSLSPGERATLSCRASKGVSTSGYSYLHWYQQKPGQAPRLLIYLASYLESGVPARFSGSGSGTDFTLTISSLEPEDFAVYYCQHSRDLPLTFGGGTKVEIKRTVAAPSVFIFPPSDEQLKSGTASVVCLLNNFYPREAKVQWKVDNALQSGNSQESVTEQDSKDSTYSLSSTLTLSKADYEKHKVYACEVTHQGLSSPVTKSFNRGEC
B3: HCLam-Z15170 (bispecific antibody)
heavy: not shown
light: B2 light
B4: Lam (PD-1 binding monoclonal antibody with the CDR sequences of pembrolizumab) (antibody, human IgG4 S228P, kappa, V domains shown)
VH: QVQLVQSGVEVKKPGASVKVSCKASGYTFTNYYMYWVRQAPGQGLEWMGGINPSNGGTNFNEKFKNRVTLTTDSSTTTAYMELKSLQFDDTAVYYCARRDYRFDMGFDYWGQGTTVTVSS
VL: EIVLTQSPATLSLSPGERATLSCRASKGVSTSGYSYLHWYQQKPGQAPRLLIYLASYLESGVPARFSGSGSGTDFTLTISSLEPEDFAVYYCQHSRDLPLTFGGGTKVEIKR

Assays:
[1] = biological target: T1, PD-L1 on PD-L1 expressing cells (IFNg-stimulated THP-1 cells; MDA-MB-231 cells) (UniProt Q9NZQ7 19-290, limits assumed); assay: FACS, MDA-MB-231 cells, 0.625 µg/ml; negative control (buffer) 69
T1 construct: whole, on cells
T1 sequence (Q9NZQ7 19-290 limits assumed): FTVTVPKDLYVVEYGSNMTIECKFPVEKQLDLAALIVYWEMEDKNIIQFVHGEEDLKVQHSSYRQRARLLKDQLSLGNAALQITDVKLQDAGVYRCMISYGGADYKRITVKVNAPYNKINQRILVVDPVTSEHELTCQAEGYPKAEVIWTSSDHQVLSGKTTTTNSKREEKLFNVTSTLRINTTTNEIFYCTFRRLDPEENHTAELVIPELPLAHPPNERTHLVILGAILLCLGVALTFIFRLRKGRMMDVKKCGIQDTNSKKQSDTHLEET
Experimental: Cells incubated with buffer alone were used as negative controls. The cells were incubated for 1 h at 8° C. in the dark, washed twice with 100 μl staining buffer, and resuspended in 100 μl of staining buffer containing 2.5 μg/ml of a goat-anti-human IgG-Alexa488 (Molecular Probes, cat. no. A11013) or, for cells stained with the positive control antibody, goat anti-mouse IgG-Alexa647 antibody (Life Technologies, cat. No. A21236). The cells were incubated for 1 h at 8° C. in the dark, washed twice with 100 μl staining buffer and resuspended in 300 μl of staining buffer. Data from 10,000 cells were obtained using a FACS Calibur ([…]) and the data was analyzed using Flowing software 2.5.0 (Turku University). Mean fluorescence intensity (MFI) was used as a read out of binding capacity.

[2] = biological target: T2, human PD-L1 Fc Chimera (R&D Systems, cat. no. 156-B7-100) (human, UniProt Q9NZQ7 19-239, biotinylated with Sulfo-NHS-LC-Biotin in ELISA and AlphaLISA; not biotinylated in SPR); assay: SPR capture assay, control
T2 construct: bought; also called hPD-L1; biotinylated hPD-L1; not shown: Fc part of the bought Fc chimera, not described
T2 sequence (Q9NZQ7 19-239, change not shown): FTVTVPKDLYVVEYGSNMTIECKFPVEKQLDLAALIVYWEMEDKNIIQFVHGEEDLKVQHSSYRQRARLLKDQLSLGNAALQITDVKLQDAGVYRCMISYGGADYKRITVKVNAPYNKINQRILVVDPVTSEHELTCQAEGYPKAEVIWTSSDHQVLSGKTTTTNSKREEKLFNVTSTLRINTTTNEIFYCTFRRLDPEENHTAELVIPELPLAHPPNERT

| Binder | MFI [1] | binding result [2] |
| --- | --- | --- |
| B1 | 64 | – |
| B2 | 161 | – |
| B3 | 274 | – |
| B4 | – | no binding (tested: 100 or 500 nM PD-L1) |
